The target in experiment [1] is α9β1 integrin on mouse RAW macrophage cells (mouse) (UniProt B8JK39). Nature of the experiment: cell-based or functional assay.
For experiment [2], the target named is α4β1 integrin on mouse B16 melanoma cells and mouse RAW macrophage cells (mouse) (UniProt Q00651). Nature of the experiment: cell-based or functional assay.
Sequence of α4β1 integrin on mouse B16 melanoma cells and mouse RAW macrophage cells (mouse) (Q00651 41-1039, chain 1 of 2): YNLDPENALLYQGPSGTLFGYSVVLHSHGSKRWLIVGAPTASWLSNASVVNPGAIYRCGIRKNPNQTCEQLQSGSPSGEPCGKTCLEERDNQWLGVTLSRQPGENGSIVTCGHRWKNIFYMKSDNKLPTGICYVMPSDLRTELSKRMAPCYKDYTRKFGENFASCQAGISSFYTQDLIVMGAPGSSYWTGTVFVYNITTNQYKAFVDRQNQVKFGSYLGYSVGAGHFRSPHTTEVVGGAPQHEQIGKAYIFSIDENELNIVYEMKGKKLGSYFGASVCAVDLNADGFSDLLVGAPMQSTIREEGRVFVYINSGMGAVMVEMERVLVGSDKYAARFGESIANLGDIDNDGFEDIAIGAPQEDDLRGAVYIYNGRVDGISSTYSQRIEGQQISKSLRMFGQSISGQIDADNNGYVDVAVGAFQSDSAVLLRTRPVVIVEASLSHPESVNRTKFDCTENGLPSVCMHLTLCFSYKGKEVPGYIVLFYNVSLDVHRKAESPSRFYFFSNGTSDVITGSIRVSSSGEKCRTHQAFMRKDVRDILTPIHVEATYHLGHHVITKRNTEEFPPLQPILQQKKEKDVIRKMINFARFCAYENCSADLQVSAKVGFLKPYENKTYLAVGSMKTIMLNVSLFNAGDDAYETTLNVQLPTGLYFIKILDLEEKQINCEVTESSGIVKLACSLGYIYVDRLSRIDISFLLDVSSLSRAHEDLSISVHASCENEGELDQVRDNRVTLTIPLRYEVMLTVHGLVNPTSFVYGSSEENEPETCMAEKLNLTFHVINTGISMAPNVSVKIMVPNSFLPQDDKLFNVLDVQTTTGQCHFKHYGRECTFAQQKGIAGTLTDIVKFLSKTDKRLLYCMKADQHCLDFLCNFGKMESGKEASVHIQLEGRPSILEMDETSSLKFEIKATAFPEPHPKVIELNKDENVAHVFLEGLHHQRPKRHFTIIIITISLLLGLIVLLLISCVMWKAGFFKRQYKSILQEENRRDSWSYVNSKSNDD
Sequence of α4β1 integrin on mouse B16 melanoma cells and mouse RAW macrophage cells (mouse) (P09055 21-798, chain 2 of 2, further chain): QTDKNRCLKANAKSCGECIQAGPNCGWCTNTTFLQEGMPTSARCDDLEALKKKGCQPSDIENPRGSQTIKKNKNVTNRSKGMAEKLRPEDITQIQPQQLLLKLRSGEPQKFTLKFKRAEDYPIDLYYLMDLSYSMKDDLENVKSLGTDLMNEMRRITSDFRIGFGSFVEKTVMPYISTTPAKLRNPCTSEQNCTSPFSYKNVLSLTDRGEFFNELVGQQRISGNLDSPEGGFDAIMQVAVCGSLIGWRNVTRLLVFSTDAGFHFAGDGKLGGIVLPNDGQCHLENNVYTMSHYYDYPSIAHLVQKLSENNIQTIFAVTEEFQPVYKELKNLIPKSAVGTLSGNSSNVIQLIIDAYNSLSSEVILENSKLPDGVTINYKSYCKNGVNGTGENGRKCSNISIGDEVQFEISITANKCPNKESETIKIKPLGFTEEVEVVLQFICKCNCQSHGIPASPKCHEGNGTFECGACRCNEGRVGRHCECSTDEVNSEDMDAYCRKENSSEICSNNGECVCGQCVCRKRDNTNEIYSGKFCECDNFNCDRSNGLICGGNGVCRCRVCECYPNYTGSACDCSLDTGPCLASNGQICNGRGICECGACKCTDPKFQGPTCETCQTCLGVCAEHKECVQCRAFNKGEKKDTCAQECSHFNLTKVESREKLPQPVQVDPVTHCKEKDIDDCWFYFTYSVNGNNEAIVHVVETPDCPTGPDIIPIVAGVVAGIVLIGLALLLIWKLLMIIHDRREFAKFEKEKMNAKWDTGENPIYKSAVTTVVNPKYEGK

Sequence of α9β1 integrin on mouse RAW macrophage cells (mouse) (B8JK39 29-1036, chain 1 of 2): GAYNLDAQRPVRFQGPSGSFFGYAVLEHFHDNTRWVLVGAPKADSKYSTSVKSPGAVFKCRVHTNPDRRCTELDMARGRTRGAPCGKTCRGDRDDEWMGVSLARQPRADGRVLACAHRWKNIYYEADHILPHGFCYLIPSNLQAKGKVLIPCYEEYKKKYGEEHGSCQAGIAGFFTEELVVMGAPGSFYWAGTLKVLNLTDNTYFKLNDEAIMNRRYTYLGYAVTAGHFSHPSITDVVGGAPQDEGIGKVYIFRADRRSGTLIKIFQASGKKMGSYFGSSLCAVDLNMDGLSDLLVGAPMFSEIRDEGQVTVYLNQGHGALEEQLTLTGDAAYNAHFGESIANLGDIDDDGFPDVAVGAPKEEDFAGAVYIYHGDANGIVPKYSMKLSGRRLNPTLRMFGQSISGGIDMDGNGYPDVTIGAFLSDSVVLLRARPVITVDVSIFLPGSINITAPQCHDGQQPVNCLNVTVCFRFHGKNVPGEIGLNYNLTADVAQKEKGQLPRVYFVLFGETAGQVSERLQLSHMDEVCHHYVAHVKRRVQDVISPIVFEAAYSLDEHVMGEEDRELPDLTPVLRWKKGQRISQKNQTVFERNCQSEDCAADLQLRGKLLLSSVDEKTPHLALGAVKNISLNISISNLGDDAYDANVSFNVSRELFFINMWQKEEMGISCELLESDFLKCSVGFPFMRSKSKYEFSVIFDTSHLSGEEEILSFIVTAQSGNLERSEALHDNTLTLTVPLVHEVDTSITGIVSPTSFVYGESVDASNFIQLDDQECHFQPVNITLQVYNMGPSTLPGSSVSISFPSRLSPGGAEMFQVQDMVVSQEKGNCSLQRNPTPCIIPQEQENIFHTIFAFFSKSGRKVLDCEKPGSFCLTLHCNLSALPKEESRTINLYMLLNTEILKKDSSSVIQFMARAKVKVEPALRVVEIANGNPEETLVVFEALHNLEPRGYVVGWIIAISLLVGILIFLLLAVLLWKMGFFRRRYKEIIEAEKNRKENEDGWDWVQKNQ
Sequence of α9β1 integrin on mouse RAW macrophage cells (mouse) (P09055 21-798, chain 2 of 2, further chain): as the sequence (P09055 21-798, chain 2 of 2, further chain) above

Consider “OPN-RRAA (OPN-R in which the RGD sequence has been mutated to RAA) (ligand)”, for which the PGE2 secretion in RAW cells in experiment [1] and in experiment [2] was 4.2 fold in each case.

Values taken from patent US20230255948A1.
